Data on 104 substances can be found in the supplement of paper PMC12042874.

± gives the uncertainty stated by the source.

This data set can be described thus: amyloid nucleation score (Sup35N fusion, yeast selection) (log enrichment); library NNK2; higher = more nucleation; inactive = no reads after selection. The gist of the method:
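Nucleation score is defined as the DiMSum log enrichment of output over input reads, with centring on the mode score of non-aggregating sequences. A minimum of 100 input reads was required for each sequence. Reads came from Illumina sequencing of plasmid inserts from psi-negative yeast expressing Sup35N fused to peptides of 20 random codons, induced with 100 μM copper sulfate for 24 hours and grown 7 days at 30°C on medium lacking adenine and uracil.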
The substance FYVRGGCI returned an amyloid nucleation score of -2.22 ± 0.76.

Turning to FKGHHGHKVWETH, the amyloid nucleation score is -0.145 ± 1.1.

Turning to RRKHLWRQRLWTR, the amyloid nucleation score was -0.425 ± 0.63.

In turn, AAVNWNRFPKTVTA showed an amyloid nucleation score of -0.195 ± 0.33.

Turning to HPYYDQ, the amyloid nucleation score is 0.538 ± 0.45.

With YYMTRVSPFQSFIVIMGASQ, the amyloid nucleation score came out at 1.89 ± 0.24.

NRRGANCVQS showed an amyloid nucleation score of -0.372 ± 0.39.

For the substance VWLCHSVNHIAISNE, the amyloid nucleation score was found to be 1.12 ± 0.45.

Regarding ESNMSKLAFRRDTVF, the amyloid nucleation score entry is “inactive”.

In turn, SQRHRAFTSWRGLMRYN displayed an amyloid nucleation score of -0.476 ± 1.1.

Consider RVSQHGEVPSTCFSK, for which the amyloid nucleation score came out at 1.39 ± 0.38.

As to RTVIQQVPAPLARAGVRWGW, the amyloid nucleation score was 3.17 ± 0.097.

Regarding SDLVLKSLFDVVARRL, the amyloid nucleation score was -0.072 ± 0.35.

For KLIHWIILVWFSSGTLPCND, the amyloid nucleation score was -0.133 ± 0.5.

YNSPSDWDTIISSIILF: the amyloid nucleation score was -1.21 ± 1.1.

On to KMTYP, for which the amyloid nucleation score is 2.14 ± 0.13.

Regarding AYHDYLSRGGTHVVVCYYLS, the amyloid nucleation score entry is “inactive”.

As to IKVAEGSLVCARYGRMVRLE, the amyloid nucleation score turned out to be 4.92 ± 0.053.

YQSVRK gave an amyloid nucleation score of -0.022 ± 0.55.

SFKVMYKENNTNLGSLLWDG showed an amyloid nucleation score of 0.049 ± 0.21.

NQTCTE had an amyloid nucleation score of 0.7 ± 0.66.

On to LRYNADMVGCKFWWIPVWSL, for which the amyloid nucleation score was -0.843 ± 0.42.

QLCLLCFLYMC yielded an amyloid nucleation score of 3.16 ± 0.16.

Take YLLFTMRNLLILGRQGRSSL: the amyloid nucleation score was -0.905 ± 0.45.

GVVNSRYALFNCRLEFKDVL yielded an amyloid nucleation score of 9.742 ± 0.071.

In turn, GIVVFINEMLTNTNPGKS returned an amyloid nucleation score of 6.954 ± 0.039.

THTLRGLQANRMISNNMDTI had an amyloid nucleation score of -0.402 ± 0.61.

Consider RLFDRSVLPLGLWVRCKIHW, for which the amyloid nucleation score is 0.28 ± 0.61.

The substance VNQLYWILCAYMVLCVGRDA had an amyloid nucleation score of 4.54 ± 0.093.

As for FCYAYTFMHEYLRGC, the amyloid nucleation score came to 0.737 ± 0.3.

Substance VDVLLFRDYLNYSNLITHKV registered an amyloid nucleation score of -1.21 ± 0.54.

With DNSVHCSFSYFNLPELKGCY, the amyloid nucleation score came to 3.8 ± 0.065.

As for KNSWAAVPRSEEYCREVIGH, the amyloid nucleation score was 0.482 ± 0.56.

For VRHGMSIFSCYPVTPTRLER, the amyloid nucleation score was 0.266 ± 0.38.

Consider VVWARYSVNLWMNLGSQASF, for which the amyloid nucleation score was determined as 4.01 ± 0.1.

Substance METAPTLNINVSDSQRPNVW displayed an amyloid nucleation score of 0.71 ± 0.53.

In the case of QFSLLDHITCQPLPTLFLS, the amyloid nucleation score was found to be 7.91 ± 0.065.

Consider SIAHGQTSQNSTEWARVDG, for which the amyloid nucleation score was determined as 0.387 ± 0.29.

The substance LILGLRGPLPCMLHNSGTYL yielded an amyloid nucleation score of 0.19 ± 1.1.

For YFNSLTQISSFRKFSRPLHS, the amyloid nucleation score was 0.033 ± 0.38.

As for THKNLEC, the amyloid nucleation score was 0.681 ± 0.17.

NQLLTVSWYSL displayed an amyloid nucleation score of 2.76 ± 0.091.

LRKALIDAFRT returned an amyloid nucleation score of 2.18 ± 0.066.

Take VSVWYGGLVRVRSTWCKIKF: the amyloid nucleation score is 1.13 ± 0.13.

As for GWMQIGSVYLFSE, the amyloid nucleation score was determined as 7.741 ± 0.048.

Take PCTMDYGVPRT: the amyloid nucleation score was found to be 0.585 ± 0.66.

For the substance VQLGVHV, the amyloid nucleation score came out at 0.14 ± 0.4.

In turn, QRARTRYGLRSLSYSAYIWS had an amyloid nucleation score of 0.807 ± 0.17.

LDYDKNKFWAQHLYSKQSSL had an amyloid nucleation score of 0.805 ± 0.23.

As for TDYLGLWPWVSSSLGRVVTW, the amyloid nucleation score was 1.22 ± 0.45.

In the case of FIHTRRCKYGWTSRFKTLTW, the amyloid nucleation score was found to be 0.105 ± 1.1.

The substance SLIKKFMLCFVYQREAHLLS returned an amyloid nucleation score of 0.402 ± 0.8.

ALKSCVLNDKVRRFLAWRLG: the amyloid nucleation score was -0.183 ± 0.54.

SCCCYMIGKGIPQM had an amyloid nucleation score of 0.394 ± 0.3.

Take TRMHESIWV: the amyloid nucleation score was found to be 1.73 ± 0.077.

Regarding TLRTFRRAQGTRYVYLK, the amyloid nucleation score turned out to be 0.121 ± 0.23.

With VFGACGTM, the amyloid nucleation score was 0.606 ± 0.32.

With DFGRWSTSGSVPCSGATCAV, the amyloid nucleation score was 2.43 ± 0.2.

As to INFGWCFYMTRRWVCGMVFR, the amyloid nucleation score worked out at 0.106 ± 1.

In turn, MFVRRKSVSMVEYWE displayed an amyloid nucleation score of 0.054 ± 0.32.

Turning to DQTWNWNVGIGFYRSYFLMY, the amyloid nucleation score entry was “inactive”.

On to SSVMPAVIAFACCCNKSTFA, for which the amyloid nucleation score was -0.237 ± 0.38.

In turn, PYELCDRTVRMSFWVTVWGH showed an amyloid nucleation score of 0.281 ± 0.49.

On to ACTLCGVWSVFTIFARHKIR, for which the amyloid nucleation score stood at 3.1 ± 0.18.

As to CVLDNGGTYNFRLRRMDHLI, the amyloid nucleation score was -0.707 ± 0.79.

As to ILLNEVFDRTWSELPGCNCT, the amyloid nucleation score was 0.043 ± 0.21.

With RADSIFDTI, the amyloid nucleation score was -0.721 ± 0.61.

In turn, VMNVNSCGWVVRHNR returned an amyloid nucleation score of 4.97 ± 0.1.

As to SYDPSVMAVGSH, the amyloid nucleation score is -0.135 ± 0.33.

Regarding FYNRFRGFIFV, the amyloid nucleation score entry is “inactive”.

Substance SALNYSFFLL showed an amyloid nucleation score of -0.27 ± 1.1.

SCRNCSQSVSLGGSSKPRQV returned an amyloid nucleation score of 0.455 ± 0.4.

With CVGIFDNDICVEFMMALRLD, the amyloid nucleation score was -1.05 ± 0.64.

With FIILI, the amyloid nucleation score was -1.29 ± 0.54.

LEVKEVSEFLRLTYMYL came in with an amyloid nucleation score of -1.67 ± 0.62.

Regarding NFVYMFVKL, the amyloid nucleation score was 4.97 ± 0.062.

In turn, NFAQWW registered an amyloid nucleation score of 0.443 ± 0.8.

Consider GSLGASVSNFGVAYSLCATR, for which the amyloid nucleation score was -0.359 ± 0.65.

For the substance DLVHFLRNRWCGIR, the amyloid nucleation score is -0.73 ± 0.55.

Substance ILLFQSAYHKSIEIWGNESF registered an amyloid nucleation score of 4.21 ± 0.043.

Take STSRCMRLHWGTFNYCSNIF: the amyloid nucleation score is 0.721 ± 0.35.

NIVVVYIEFSGVHPTLVLLW registered an amyloid nucleation score of -0.42 ± 0.3.

As for YNSNFPTLYWG, the amyloid nucleation score result is “inactive”.

On to KWFSIMRPVRLVRFHWTGSN, for which the amyloid nucleation score came to 3.63 ± 0.089.

The substance ISFYQWRPWNFLRYRRGNAH came in with an amyloid nucleation score of 0.237 ± 0.31.

With QMIFGYQHRAALDIMNGVPD, the amyloid nucleation score result was “inactive”.

Turning to PEFLNKMQTTIYDKDCYMDR, the amyloid nucleation score result is “inactive”.

VSPALK gave an amyloid nucleation score of -0.055 ± 1.1.

Regarding DIIVVQCIVSVMCTMRASRS, the amyloid nucleation score amounted to 5.897 ± 0.051.

Substance IVACGCVSVSRRSLP displayed an amyloid nucleation score of 3.09 ± 0.059.

On to FHGHQPYFWNVL, for which the amyloid nucleation score was 0.326 ± 0.54.

In turn, SCIDCLRLSLLSGCIHWVNY yielded an amyloid nucleation score of 0.509 ± 0.8.

Take NMLYHYIDRSCRGAMDHHGR: the amyloid nucleation score result was “inactive”.

For the substance FAKCHFSQSARYIY, the amyloid nucleation score result is “inactive”.

Consider DLGYDLTINWAFERLADRVN, for which the amyloid nucleation score is -1.46 ± 1.

Substance AIRGTECYWLAWVGLAVKRR displayed an amyloid nucleation score of 1.12 ± 0.23.

Regarding CMVNPVPWDCLVRKFMFVGA, the amyloid nucleation score is -0.421 ± 0.35.

In turn, FPWQSSDYFWNHARRS returned an amyloid nucleation score of -0.043 ± 0.6.

As to ADCLKSCLAMSGF, the amyloid nucleation score is -0.14 ± 0.8.

The substance SLLMNMS came in with an amyloid nucleation score of 0.269 ± 0.37.

Substance SVQFRMIQDLRVAADGRPRA yielded an amyloid nucleation score of 5.545 ± 0.05.

With GWWNHGSSMGYFERVSSTFW, the amyloid nucleation score entry is “inactive”.

NSDISARCGSCVYLWYVSDD yielded an amyloid nucleation score of 8.712 ± 0.048.

Turning to GCSVKFIFNHKSGYYIYLLF, the amyloid nucleation score is -0.822 ± 0.54.
